For 21 sequences, protein production results are on record in a protein production outcome set (Wang et al. 2014).

This data set in a line: label from the status in PepcDB records.
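Note: failed if final PepcDB status was selected cloned or expressed and not failed if soluble or beyond.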

For the sequence “MELIRFSISIPSKLLEKFDQIIEEIGYENRSEAIRDLIRDFIIRHEWEVGNEEVAGTITIVYNHDEGDVVKALLDLQHEYLDEIISSLHVHMDEHNCLEVIVVKGEAKKIKMIADKLLSLKGVKHGKLVMTSTGKELV”, the protein production entry is on record as “not failed”.
On to “MELKMKTRALVIGLGSMGKRRVRNLLALGNIDVFGFDVRADRNEEASSKYQITTFDDVQKAFEDVKPEVVVISTPPQLHMTYANMCFDARVPCFIEASVTDIEEIRELGKKALEASLVIAPSCTMRYFPGPKKVKELLEQNVIGSPLSVNYQTGQYLPDWHPWEDIQDFYVSKRESGGAREIVPFELTWLNDLFSHDVKALASAVAKQTDMNADIDDIYHCLLQYDSGVLLNLTVEVISRPLATREMLILGSKGKIKFSADSNSVSYCNLETDGWVESTWEEGTVESQYINPEEPYINEMKDFVTAALAGDQSLFPNNLQDDVKVLEVLEALEEVDQLKGNKA”, for which the protein production result was “failed”.
Turning to “MELLLGIVIVVTCWMVVRIIRSSKNQEGYKRWRAGNYASENPYAKEKASGPLSQGLFSKRVRTTGVRRFDDGAIRWCANLLATEESRLREVLDYIPRQYTCFHVRKRSGGFRYISAPAGDFRSMQQTIYHRILLLANIHPAVTGFCPGKSVSDNARVHLGRKNVLKVDLHDFFPSIRSPRVRAAFREMGYSRPIAKVLAELCCLRCCLPQGAPTSPALSNIIAYPMDKKMMALAGEYGLVYTRYADDLTFSGDYLPKDEVLVRIHRIIREEGFTMNVKKTRFLSEHKRKIITGVSVSSGKKMTLPKVKKREIRKNVHYVLTKGLVGHQEHIGSTDPVYLKRLLGSLCYWRSIEPDNRYVSDSITALKRLM”, the protein production entry is “failed”.
As for “MELNISESRSRSIRCIVKLGGAAITCKNELEKIHDENLEVVACQLRQAMLEGSAPSKVIGMDWSKRPGSSEISCDVDDIGDQKSSEFSKFVVVHGAGSFGHFQASRSGVHKGGLEKPIVKAGFVATRISVTNLNLEIVRALAREGIPTIGMSPFSCGWSTSKRDVASADLATVAKTIDSGFVPVLHGDAVLDNILGCTILSGDVIIRHLADHLKPEYVVFLTDVLGVYDRPPSPSEPDAVLLKEIAVGEDGSWKVVNPLLEHTDKKVDYSVAAHDTTGGMETKISEAAMIAKLGVDVYIVKAATTHSQRALNGDLRDSVPEDWLGTIIRFSK”, the entry is “failed”; as for “MELPAVGEHVFAVESIEKKRIRKGRVEYLVKWRGWSPKYNTWEPEENILDPRLLIAFQNRERQEQLMGYRKRGPKPKPLVVQVPTFARRSNVLTGLQDSSTDNRAKLDLGAQGKGQGHQYELNSKKHHQYQPHSKERAGKPPPPGKSGKYYYQLNSKKHHPYQPDPKMYDLQYQGGHKEAPSPTCPDLGAKSHPPDKWAQGAGAKGYLGAVKPLAGAAGAPGKGSEKGPPNGMMPAPKEAVTGNGIGGKMKIVKNKNKNGRIVIVMSKYMENGMQAVKIKSGEVAEGEARSPSHKKRAADERHPPADRTFKKAAGAEEKKVEAPPKRREEEVSGVSDPQPQDAGSRKLSPTKEAFGEQPLQLTTKPDLLAWDPARNTHPPSHHPHPHPHHHHHHHHHHHHAVGLNLSHVRKRCLSETHGEREPCKKRLTARSISTPTCLGGSPAAERPADLPPAAALPQPEVILLDSDLDEPIDLRCVKTRSEAGEPPSSLQVKPETPASAAVAVAAAAAPTTTAEKPPAEAQDEPAESLSEFKPFFGNIIITDVTANCLTVTFKEYVTV”, “failed”; as for “MELREVAAVSGRGGLFKILKPTKNGVILEAIDPSKKRFVAGANERVSILNEISIYTTDKDGSVPLESVLHKIHAKYGADTKITGKSSNDELGNFLSSILPEYDREKVYHSDIKKLANWYAILQANFPELLVAKKEAAPKTEAKPAEAKEEKVKAVKEEKAEAPAPAAKKAAAKKVKEVSEEATEKPAAKKAAAKKTAKAKGE”, “failed”.
For the sequence “MELSSSESLGFSKILKERVKVKPMNKYAILAVLLWSTVASAFKLTLSRLDTISMLFYSSLTSTVIFLLANLKDIKTFSIKANLNSVFFGFINPFLYYLVLFSAYSILPAQEAQALNYTWPIILVIFSSAFLGQRLSERDFLGVIIGFLGALVVGTRGNLSSLHFANPMGDLLALCSAIIWAIYWILNLRDPRKAEVKMMWNFIFGFLYISILGVIEGIKFDPYGVLGAIYVGTFEMGLTFLLWLKALESEEAGKVASLIYLTPVLSLLFISIVVGEKILGSTIVGLALILLGIALSRR”, the protein production entry was “failed”.
As for “MELTALDKLEIMELAARFEMSLDKEDVENYLATFASDGALQGFWGIAKGKEELRQGFYAMLDTFARGKRHCSSNAIIQGNYDEATMESYLTVVNREDLNRAGSAFVKDQVRKINGKWYLILRQIEVDPSLPLLQQSQQAGANA”, the entry is “not failed”.
As for “MELTQTHLLPVPLQTAWDALNDPAVLQRCIPGCESVTAATEHAYDIAMTAAVGPVKARFKGRMELADIVPPRSYTLHFDGQGGAAGFGKGTAQVQLAPEGPTVTRLSYTAHAQVGGKLAQIGSRLIDGAARKLADEFFQRFASEFGPAGGTGPLDAAPADQAIPDLASGELAAHGAPRTPLISPAVQPRNPWPWIIVALVAIVAAYLFLHHGA”, the protein production entry was “failed”.
With “MEMINVFVYGTLRRGGGNHQLIAEYVQSVHEATVKGMLFHLPYGYPAMVDGRGTVRGEILELSNPETALTILDELEGYHGPGQSNEYERITVTAVTADGNKYICYTYVYPEEQREWLEQNAQPIFGGDWMAFLHSKDEVMYFAYGSCMSERDFRRTVPHFEVMGRAVLDDYRLAFTRYSSGRQGGVADIVPSPGDRVEGVLYKISSRYVKDLDWREGVPAGVYRREYIDVQHNGQLVSALTYVVVEKQLDEIAPSESYASIILDEGTSLLSPQYIEQVRRHIETLQKKGR” the entry was “failed”.
As for “MEMKKMKKMDKMELLKQIMAVDFTIIDLSLYLNTHPMDKEAIAKHNAFVAQSHMLKGQYQKYYGMLTATNSCSPYPWQWIKEPWPWEYDANFRL”, the entry is “failed”; as for “MEMYFKRMKDEWTGLVEQADPPIRAKAAEIAVAHAHYLSIEFYRIVRIDPHAEEFLSNEQVERQLKSAMERWIINVLSAQVDDVERLIQIQHTVAEVHARIGIPVEIVEMGFRVLKKILYPVIFSSDYSAAEKLQVYHFSINSIDIAMEVMTRAFTFSDSSASKELEHHHHHH”, “not failed”.
For the sequence “MENDSSIQWEHSHDFGLDNKLHENKVKTVFWLTTVIMVLEIGAGTWSGSMALLADGWHMGTHSAAFLIAIFAYSYAKKHANNKDFSFGTGKVNSLGGFASAIALAIVALMMIVESVQRLLEPQSIHFNEAIVVAIIGLVVNVASVFILHDDHHHHGEHHHDHDHNMKAAYFHVLADTLTSLLAIVALLIGKYVGLIWMDPLMGIVGAIVILRWSYGLIKDSSNVLLDKSVKKSTLEQISKALSKKNTVINDIHVWTIATAHQAAILKVTSAQPLNSDEYEGILREILPQLSHISIEIRHDYSL”, the protein production result is listed as “failed”.
Turning to “MENIEYVFEDVVRIYDTDAQGIAHYAAYYRFFTNTIEKFIKEKVGIPYPIVNENLWFVIAESHAIYHRPVKLGDKLTVLLNPKILSNKTIKFEFKVLKDGELTTEGYVIQIAINPKIWKSTEMPKEIMDKLSIK”, the protein production result is given as “not failed”.
With “MENKPDYFHHIEHRKFQSSSKITLWLSLVITMIFTVVEFVGGIVSNSLALLSDSFHMLSDVLALGLSMVAIYFSSKPPTKNYTYGFLRLEIIVAFLNGLALIVISLGIMYEGIMRIIHPRPVESGIMILIAFIGLIANIVLTIILMISLKKENNINIQSALWHFIGDLLNSLGIIVAFVLIHFTGWNIVDPIISILISLIILRGGYKIIKNASKVLMERVPDRYDTDEIMGAMKDVEGVIDIHEFHLWSVTTNQSSLSAHVVLSDDYIKSPYATINKVSDLLKTQYGLEHVTLQIENINLNHLDEEYFKQLQE” the entry was “failed”; with “MENLALTTLLLPFIGALVVSFSPQRRAAEWGVLFAALTTLCMLSLISAFYQADKVAVTLTLVNVGDVALFGLVIDRVSTLILFVVVFLGLLVTIYSTGYLTDKNREHPHNGTNRYYAFLLVFIGAMAGLVLSSTLLGQLLFFEITGGCSWALISYYQSDKAQRSALKALLITHIGSLGLYLAAATLFLQTGTFALSAMSELHGDARYLVYGGILFAAWGKSAQLPMQAWLPDAMEAPTPISAYLHAASMVKVGVYIFARAIIDGGNIPHVIGGVGMVMALVTILYGFLMYLPQQDMKRLLAWSTITQLGWMFFGLSLSIFGSRLALEGSIAYIVNHAFAKSLFFLVAGALSYSCGTRLLPRLRGVLHTLPLPGVGFCVAALAITGVPPFNGFFSKFPLFAAGFALSVEYWILLPAMILLMIESVASFAWFIRWFGRVVPGKPSEAVADAAPLPGSMRLVLIVLIVMSLISSVIAATWLQ”, “failed”.
As for “MENLKNVAPIEDFNWDAYENGEAVTSASHEDLEKAYDGTLNKVNDREVVDGTVIAMNKREVVVNIGYKSDGIIPLNEFRYNPDLKVGDTVEVYIENQEDKKGQLVLSHRKARATRSWDRVNAALENEEIIKGFIKCRTKGGMIVDVFGIEAFLPGSQIDVKPIRDYDVFVGKTMEFKVVKINQEFKNVVVSHKALIEAELEQQKKEIIGKLEKGQVLEGTVKNITSYGVFIDLGGVDGLIHITDLSWGRVSDPKEVVELDQKLNVVILDFDDEKKRIALGLKQLTPHPWDALDTDLKVGDKVKGKVVVMADYGAFIEIATGVEGLIHVSEMSWSQHLRSAQDFMKVGDEVEAVVLTLDREERKMSLGIKQLKQDPWETIEEKYPVGSKHTAKVRNFTNFGVFVEIEEGVDGLIHISDLSWTKKVKHPSEFTQIGADIEVQVLEIDKENRRLSLGHKQLEENPWDVFETVFTVGSVHEGTIIEMLDKGAVVALPYGVEGFATPKHLVKEDGSQAQLDEKLEFKVIEFNKDAKRIILSHSRIFEDVAKAEERAEKKAASGAKKSSNNKREDAPMIQNQAASTTLGDIDALAALKEQLEGKKLEHHHHHH”, the entry is “not failed”.
As to “MENMIVIMAGGRSSRMGAEKPILKVNGKPMILRVYEESTKVGETLVAISKNTPKTRELCIKEGIPLIETPGEGYVEDVRYLLKELGSFVSVSADLPFVKACDIAEVKKAFDGKTSLTGVLPLSKVPTDLRPVVYKGYVIVGLNGVGFEGEKFYELSNPLLALNVNTPEELKLANRIAKLIGLEHHHHHH”, the protein production result is recorded as “failed”.
As for “MENQKMQEPLVYRRILLTVDEDDNTSSERAFRYATTLAHDYDVPLGICSVLESEDINIFDSLTPSKIQAKRKHVEDVVAEYVQLAEQRGVNQVEPLVYEGGDVDDVILEQVIPEFKPDLLVTGADTEFPHSKIAGAIGPRLARKAPISVIVVR”, the protein production result is reported as “not failed”.
As for “MENRAHALAAGLFILLLGVATVMAVKWFSRDSVSYNHYFLVSAGGAVSGLNPEASVRYRGVNVGKVEEIYFDRENIRNIIVRIAVNHNVVLPGDIYAQLASQGITGLTYIELNDDVADAETKPLQNEARIPLRSSLIKTLSDSLEEILKNSNMAIRQISNLLNEQNQTHISSILSHLEQAVQHYDTLTGQLQKGLQTLPQLSSELTSTFKQTRQVMENTSQVLQKLNQQQGLVDNLTQGSLEMTRTLTSLNETGVAITQSAHKLDQLLNLLEDHPQSLVFGKPPALPGPGEPGFSPPQPGK”, the protein production entry was “failed”.
For “MENSDETKMSEEILALVDEFQQAWPLEGFGGALEMKGRRLDLQGIRVLKKGPQDGVARSSCYGDCRSEDDEATEWITFQVKRVKKPKGDHKKTPGKKVETGQIENGHRYQANLEITGPKVASPGPQGKKRDYQRLGWPSPDECLKLRWVELTAIVSTWLAVSSKNIDITEHIDFATPIQQPAMEPLCNGNLPTSMHTLDHLHGVSNRASLHYTGESQLTEVLQNLGKDQYPQQSLEQIGTRIAKVLEKSQTSWVLSSMAALYWRVKGQGKKAIDCLRQALHYAPHQMKDVPLISLANILHNAKLWNDAVIVATMAVEIAPHFAVNHFTLGNVYVAMEEFEKALVWYESTLKLQPEFVPAKNRIQTIQCHLMLKKGRRSP”, the protein production entry was “failed”.
